This note sets out measurements from patent publication US12545899B2, “Luciferase enzymes for use with thermostable luciferins in bioluminescent assays” (Promega Corporation, priority 2018, dated 2026).

Data set [1] is described as follows: Differential scanning fluorimetry (DSF) analysis. In kind it is physicochemical. Conditions: Table 9A. The method in brief:
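Thermal melt with 5× final Sypro Orange: ramp 1° C/min from 30 to 95° C, reading each 60 s, derivative of fluorescence plotted by temperature. Luciferase variants were in 20 mM HEPES pH 7.5, 200 mM NaCl, 1 mM EDTA; other enzymes in 50 mM HEPES pH 7.5, 100 mM NaCl, 2 mM EDTA.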
In general terms: In DSF a fluorescence change marks the thermal transition of the protein.

Data set [2] is described as follows: Effect of individual mutations: maximum luminescence with CS0333. In kind it is biochemical. Conditions: 10 fM to 1 mM CS0333; Detection Reagent (DR) buffer. The protocol:
Experiments were also conducted to evaluate and compare the activities of the various luciferase enzyme variants, including the effects of individual amino acid mutations. To evaluate the effect of individual mutations on luciferase enzyme variants, 0.005 mg/ml luciferase enzyme variant was mixed with 1 mM ATP+10 fM to 1 mM CS0333 in Detection Reagent (DR) buffer.

B1: MK0118: SEQ ID NO: 85; H244W+T344A+I396K+N228D+L305F+S306P+I109V (protein)
chain: MADKNILYGPEPFYPLEDGTAGEQMFDALSRYAAIPGCIALTNAHTKENVLYEEFLKLSCRLAESFKKYGLKQNDTIAVCSENSLQFFLPVIASLYLGIIVAPVNDKYVERELIHSLGIVKPRIVFCSKNTFQKVLNVKSKLKSIETIIILDLNEDLGGYQCLNNFISQNSDSNLDVKKFKPYSFNRDDQVAAIMFSSGTTGLPKGVMLTHKNIVARFSIAKDPTFGDAINPTSAILTVIPFHWGFGMMTTLGYFTCGFRVVLMHTFEEKLFLQSLQDYKVESTLLVPTLMAFLAKSALVEKYDFPHLKEIASGGAPLSKEIGEMVKKRFKLNFVRQGYGLTEATSAVLITPKGDAKPGSTGKIVPLHAVKVVDPTTGKILGPNEPGELYFKGPMKMKGYYNNEEATKAIIDNDGWLRSGDIAYYDNDGHFYIVDRLKSLIKYKGYQVAPAEIEGILLQHPYIVDAGVTGIPDEAAGELPAAGVVVQTGKYLNEQIVQDYVASQVSTAKWLRGGVKFLDEIPKGSTGKIDRKVLRQMLEKHTNGHHHHHHHH
For B1, in data set [1], the “DSF Tm (° C.)” value turned out to be 63 °C. For the same molecule, in data set [2], the “Vmax (RLU) with CS0333” value is on record as 3,455,610 RLU.

B2: MK0122: SEQ ID NO: 89; H244W+I396K+S193A+N228D+L305F+S306P+I109V (protein)
chain: MADKNILYGPEPFYPLEDGTAGEQMFDALSRYAAIPGCIALTNAHTKENVLYEEFLKLSCRLAESFKKYGLKQNDTIAVCSENSLQFFLPVIASLYLGIIVAPVNDKYVERELIHSLGIVKPRIVFCSKNTFQKVLNVKSKLKSIETIIILDLNEDLGGYQCLNNFISQNSDSNLDVKKFKPYSFNRDDQVAAIMFSSGTTGLPKGVMLTHKNIVARFSIAKDPTFGDAINPTSAILTVIPFHWGFGMMTTLGYFTCGFRVVLMHTFEEKLFLQSLQDYKVESTLLVPTLMAFLAKSALVEKYDFPHLKEIASGGAPLSKEIGEMVKKRFKLNFVRQGMGLTEATSAVLITPKGDAKPGSTGKIVPLHAVKVVDPTTGKILGPNEPGELYFKGPMKMKGYYNNEEATKAIIDNDGWLRSGDIAYYDNDGHFYIVDRLKSLIKYKGYQVAPAEIEGILLQHPYIVDAGVTGIPDEAAGELPAAGVVVQTGKYLNEQIVQDYVASQVSTAKWLRGGVKFLDEIPKGSTGKIDRKVLRQMLEKHTNGHHHHHHHH
For the molecule B2, the “DSF Tm (° C.)” value in data set [1] came out at 69 °C. Further, in data set [2], the “Vmax (RLU) with CS0333” value is reported as 962,171 RLU.

B3: MK0123: SEQ ID NO: 90; H244W+T344A+S193A+N228D+L305F+S306P+I109V (protein)
chain: MADKNILYGPEPFYPLEDGTAGEQMFDALSRYAAIPGCIALTNAHTKENVLYEEFLKLSCRLAESFKKYGLKQNDTIAVCSENSLQFFLPVIASLYLGIIVAPVNDKYVERELIHSLGIVKPRIVFCSKNTFQKVLNVKSKLKSIETIIILDLNEDLGGYQCLNNFISQNSDSNLDVKKFKPYSFNRDDQVAAIMFSSGTTGLPKGVMLTHKNIVARFSIAKDPTFGDAINPTSAILTVIPFHWGFGMMTTLGYFTCGFRVVLMHTFEEKLFLQSLQDYKVESTLLVPTLMAFLAKSALVEKYDFPHLKEIASGGAPLSKEIGEMVKKRFKLNFVRQGYGLSEATSAVLITPKGDAKPGSTGKIVPLHAVKVVDPTTGKILGPNEPGELYFKGPMKMKGYYNNEEATKAIIDNDGWLRSGDIAYYDNDGHFYIVDRLKSLIKYKGYQVAPAEIEGILLQHPYIVDAGVTGIPDEAAGELPAAGVVVQTGKYLNEQIVQDYVASQVSTAKWLRGGVKFLDEIPKGSTGKIDRKVLRQMLEKHTNGHHHHHHHH
B3: the “DSF Tm (° C.)” value in data set [1] was found to be 72 °C. In data set [2], the “Vmax (RLU) with CS0333” value is listed as 2,841,640 RLU.

B4: MK0120: SEQ ID NO: 87; H244W+T344A+I396K+S193A+N228D+S306P+I109V (protein)
chain: MADKNILYGPEPFYPLEDGTAGEQMFDALSRYAAIPGCIALTNAHTKENVLYEEFLKLSCRLAESFKKYGLKQNDTIAVCSENSLQFFLPVIASLYLGIIVAPVNDKYVERELIHSLGIVKPRIVFCSKNTFQKVLNVKSKLKSIETIIILDLNEDLGGYQCLNNFISQNSDSNLDVKKFKPYSFNRDDQVAAIMFSSGTTGLPKGVMLTHKNIVARFSIAKDPTFGDAINPTSAILTVIPFHWGFGMMTTLGYFTCGFRVVLMHTFEEKLFLQSLQDYKVESTLLVPTLMAFLAKSALVEKYDFPHLKEIASGGMPLSKEIGEMVKKRFKLNFVRQGYGLTEATSAVLITPKGDAKPGSTGKIVPLHAVKVVDPTTGKILGPNEPGELYFKGPMKMKGYYNNEEATKAIIDNDGWLRSGDIAYYDNDGHFYIVDRLKSLIKYKGYQVAPAEIEGILLQHPYIVDAGVTGIPDEAAGELPAAGVVVQTGKYLNEQIVQDYVASQVSTAKWLRGGVKFLDEIPKGSTGKIDRKVLRQMLEKHTNGHHHHHHHH
Take B4: in data set [1], the “DSF Tm (° C.)” value is 62 °C. The “Vmax (RLU) with CS0333” value in data set [2] is reported as 3,192,740 RLU.

B5: MK0119: SEQ ID NO: 86; T344A+I396K+S193A+N228D+L305F+S306P+I109V (protein)
chain: MADKNILYGPEPFYPLEDGTAGEQMFDALSRYAAIPGCIALTNAHTKENVLYEEFLKLSCRLAESFKKYGLKQNDTIAVCSENSLQFFLPVIASLYLGIIVAPVNDKYVERELIHSLGIVKPRIVFCSKNTFQKVLNVKSKLKSIETIIILDLNEDLGGYQCLNNFISQNSDSNLDVKKFKPYSFNRDDQVAAIMFSSGTTGLPKGVMLTHKNIVARFSIAKDPTFGDAINPTSAILTVIPFHWGFGMMTTLGYFTCGFRVVLMHTFEEKLFLQSLQDYKVESTLLVPTLMAFLAKSALVEKYDFPHLKEIASGGAPLSKEIGEMVKKRFKLNFVRQGYGLTEATSAILITPKGDAKPGSTGKIVPLHAVKVVDPTTGKILGPNEPGELYFKGPMKMKGYYNNEEATKAIIDNDGWLRSGDIAYYDNDGHFYIVDRLKSLIKYKGYQVAPAEIEGILLQHPYIVDAGVTGIPDEAAGELPAAGVVVQTGKYLNEQIVQDYVASQVSTAKWLRGGVKFLDEIPKGSTGKIDRKVLRQMLEKHTNGHHHHHHHH
B5: the “DSF Tm (° C.)” value in data set [1] came out at 64 °C. In addition, in data set [2], the “Vmax (RLU) with CS0333” value is 62,167 RLU.

B6: MK0125: SEQ ID NO: 92; H244W+T344A+I396L+S193A+N228D+L305F+S306P+I109V (protein)
chain: MADKNILYGPEPFYPLEDGTAGEQMFDALSRYAAIPGCIALTNAHTKENVLYEEFLKLSCRLAESFKKYGLKQNDTIAVCSENSLQFFLPVIASLYLGIIVAPVNDKYVERELIHSLGIVKPRIVFCSKNTFQKVLNVKSKLKSIETIIILDLNEDLGGYQCLNNFISQNSDSNLDVKKFKPYSFNRDDQVAAIMFSSGTTGLPKGVMLTHKNIVARFSIAKDPTFGDAINPTSAILTVIPFHWGFGMMTTLGYFTCGFRVVLMHTFEEKLFLQSLQDYKVESTLLVPTLMAFLAKSALVEKYDFPHLKEIASGGWPLSKEIGEMVKKRFKLNFVRQGYGLTEITSAVLITPKGDAKPGSTGKIVPLHAVKVVDPTTGKILGPNEPGELYFKGPMKMKGYYNNEEATKAIIDNDGWLRSGDIAYYDNDGHFYIVDRLKSLIKYKGYQVAPAEIEGILLQHPYIVDAGVTGIPDEAAGELPAAGVVVQTGKYLNEQIVQDYVASQVSTAKWLRGGVKFLDEIPKGSTGKIDRKVLRQMLEKHTNGHHHHHHHH
For B6, in data set [1], the “DSF Tm (° C.)” value is 69 °C. For the same molecule, in data set [2], the “Vmax (RLU) with CS0333” value is reported as 2,625,480 RLU.

B7: MK0121: SEQ ID NO: 88; H244W+T344A+I396K+S193A+N228D+L305F+I109V (protein)
chain: MADKNILYGPEPFYPLEDGTAGEQMFDALSRYAAIPGCIALTNAHTKENVLYEEFLKLSCRLAESFKKYGLKQNDTIAVCSENSLQFFLPVIASLYLGIIVAPVNDKYVERELIHSLGIVKPRIVFCSKNTFQKVLNVKSKLKSIETIIILDLNEDLGGYQCLNNFISQNSDSNLDVKKFKPYSFNRDDQVAAIMFSSGTTGLPKGVMLTHKNIVARFSIAKDPTFGDAINPTSAILTVIPFHWGFGMMTTLGYFTCGFRVVLMHTFEEKLFLQSLQDYKVESTLLVPTLMAFLAKSALVEKYDFPHLKEIASGGWPLSKEIGEMVKKRFKLNFVRQGYGLTEATSAVLITPKGDAKPGSTGKIVPLHAVKVVDPTTGKILGPNEPGELYFKGPMKMKGYYNNEEATKAIIDNDGWLRSGDIAYYDNDGHFYIVDRLKSLIKYKGYQVAPAEIEGILLQHPYIVDAGVTGIPDEAAGELPAAGVVVQTGKYLNEQIVQDYVASQVSTAKWLRGGVKFLDEIPKGSTGKIDRKVLRQMLEKHTNGHHHHHHHH
As for B7, the “DSF Tm (° C.)” value in data set [1] is 62 °C. Besides, the “Vmax (RLU) with CS0333” value in data set [2] is 2,643,970 RLU.

B8: MK0124: SEQ ID NO: 91; H244W+T344M+I396K+S193A+N228D+L305F+S306P+I109V (protein)
chain: MADKNILYGPEPFYPLEDGTAGEQMFDALSRYAAIPGCIALTNAHTKENVLYEEFLKLSCRLAESFKKYGLKQNDTIAVCSENSLQFFLPVIASLYLGIIVAPVNDKYVERELIHSLGIVKPRIVFCSKNTFQKVLNVKSKLKSIETIIILDLNEDLGGYQCLNNFISQNSDSNLDVKKFKPYSFNRDDQVAAIMFSSGTTGLPKGVMLTHKNIVARFSIAKDPTFGDAINPTSAILTVIPFHWGFGMMTTLGYFTCGFRVVLMHTFEEKLFLQSLQDYKVESTLLVPTLMAFLAKSALVEKYDFPHLKEIASGGAPLSKEIGEMVKKRFKLNFVRQGYGLTEITSAVLITPKGDAKPGSTGKIVPLHAVKVVDPTTGKILGPNEPGELYFKGPMKMKGYYNNEEATKAIIDNDGWLRSGDIAYYDNDGHFYIVDRLKSLIKYKGYQVAPAEIEGILLQHPYIVDAGVTGIPDEAAGELPAAGVVVQTGKYLNEQIVQDYVASQVSTAKWLRGGVKFLDEIPKGSTGKIDRKVLRQMLEKHTNGHHHHHHHH
Regarding B8, the “DSF Tm (° C.)” value in data set [1] turned out to be 70 °C. Besides, the “Vmax (RLU) with CS0333” value in data set [2] was 4,270,690 RLU.
